Read-outs that look alike come from different tables or passages of the source.
Legend:
Assay in all cases: MSD inhibition assay, abeta 1-28 coated plates
[1] = biological target: Biosimilar (BS) bapineuzumab
[2] = biological target: Biosimilar (BS) bapineuzumab; remark: listed apart in the source
[3] = biological target: Biosimilar (BS) bapineuzumab; remark: listed apart in the source

Sequence of Biosimilar (BS) bapineuzumab (chain, as listed by the source, chain 1 of 2): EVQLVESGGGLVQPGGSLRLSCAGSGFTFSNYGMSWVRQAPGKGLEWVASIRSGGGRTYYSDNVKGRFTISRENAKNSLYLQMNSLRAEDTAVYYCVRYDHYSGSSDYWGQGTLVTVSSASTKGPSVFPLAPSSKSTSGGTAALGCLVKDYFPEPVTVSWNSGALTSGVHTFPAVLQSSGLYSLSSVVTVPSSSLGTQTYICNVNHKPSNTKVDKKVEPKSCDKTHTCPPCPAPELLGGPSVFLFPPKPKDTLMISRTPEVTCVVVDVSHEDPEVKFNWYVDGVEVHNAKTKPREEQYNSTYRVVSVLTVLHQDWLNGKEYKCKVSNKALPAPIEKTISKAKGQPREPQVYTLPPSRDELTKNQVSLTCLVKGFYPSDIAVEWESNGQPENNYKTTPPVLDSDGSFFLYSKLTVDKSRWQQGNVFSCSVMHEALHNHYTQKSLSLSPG
Sequence of Biosimilar (BS) bapineuzumab (chain, as listed by the source, chain 2 of 2): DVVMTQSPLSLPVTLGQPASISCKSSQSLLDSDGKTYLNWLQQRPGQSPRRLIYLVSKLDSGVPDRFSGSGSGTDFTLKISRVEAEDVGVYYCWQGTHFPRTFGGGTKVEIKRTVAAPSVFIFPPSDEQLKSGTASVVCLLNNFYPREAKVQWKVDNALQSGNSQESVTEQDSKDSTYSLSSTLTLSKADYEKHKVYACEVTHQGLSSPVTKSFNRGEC

B1: abeta 1-12 trimer construct, P05067 672-683; P05067 672-683; P05067 672-683 (peptide)
peptide: DAEFRHDSGYEVGGGGGGGGDAEFRHDSGYEVGGGGGGGGDAEFRHDSGYEV
modifications: not checked
B1 gave an IC50 [1] of 19 nM, an IC50 [2] of 10 to 40 nM and an IC50 [3] of 10 nM.

— patent US20190275125A1
